The source of these data is paper PMC6326804, “Structural insights into a unique preference for 3′ terminal guanine of mirtron in Drosophila TUTase tailor” (Nucleic Acids Research, 2018).

In one data set the target is T1, Tailor-ZnC (Drosophila melanogaster, UniProt Q9VI58).
T1 construct: core domain with possible N-terminal C2H2 zinc finger, residues 137-560; N-terminal 8xHis-SUMO tag cut by ULP1; E. coli host
The data set is described as follows: in-vitro nucleotide transferase assay, denaturing PAGE of Cy5-labelled RNA. It counts as biochemical. The following applies: 1 mM UTP, 200 nM Cy5 truncated pre-mir-1003, 10 mM MgCl2, pH 7.2, 25 °C.

The target in data set [1] is T2, Tailor-C (Drosophila melanogaster, UniProt Q9VI58, D343A).
T2 construct: core catalytic domain, residues 202-560; N-terminal 8xHis-SUMO tag cut by ULP1; E. coli host
T2 sequence (Q9VI58 202-560 D343A): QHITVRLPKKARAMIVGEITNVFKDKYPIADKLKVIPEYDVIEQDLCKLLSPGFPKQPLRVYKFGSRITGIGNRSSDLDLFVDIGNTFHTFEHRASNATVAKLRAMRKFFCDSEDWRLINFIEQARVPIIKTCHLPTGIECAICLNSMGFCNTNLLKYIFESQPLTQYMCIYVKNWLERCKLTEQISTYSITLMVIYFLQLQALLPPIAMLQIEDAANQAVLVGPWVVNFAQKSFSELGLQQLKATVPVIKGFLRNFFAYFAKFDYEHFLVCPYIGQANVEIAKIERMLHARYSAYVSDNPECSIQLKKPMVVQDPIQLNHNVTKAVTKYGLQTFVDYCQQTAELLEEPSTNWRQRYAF
The data set is described as follows: X-ray crystal structure (crystal soaking), […] A. Type of data set: binding. As to conditions: D343A crystals soaked with 10 mM UTP and 20 mM MgCl2 for 10 min; active site of catalytic groove.

The target in data set [2] is Tailor-C (Drosophila, UniProt Q9VI58 202-560). As to the kind of experiment: crystal structure; EMSA: 25 mM Tris-HCl pH 7.2, 100 mM NaCl, 5 mM DTT, 500 nM Cy5-RNA, 0-2.5 uM protein, 30 min on ice; 6% native gel at 4 C. As to conditions: protein: recombinant; tags: 8xHis-SUMO tag removed by ULP1; single strand.
Tailor-C (Drosophila, UniProt Q9VI58 202-560), sequence (Q9VI58 202-560): as the sequence (Q9VI58 202-560 D343A) above, with A142D counted along it
The target in another data set is Tailor-C V328L (Drosophila, UniProt Q9VI58 202-560, V328L). As to the kind of experiment: EMSA; no Mg2+ added; EMSA: 25 mM Tris-HCl pH 7.2, 100 mM NaCl, 5 mM DTT, 500 nM Cy5-RNA, 0-2.5 uM protein, 30 min on ice; 6% native gel at 4 C. The following applies: protein: recombinant; tags: 8xHis-SUMO tag removed by ULP1; label: 5'-Cy5; single strand.
Tailor-C V328L, sequence (Q9VI58 202-560 V328L): as the sequence (Q9VI58 202-560 D343A) above, with V127L, A142D counted along it
In a further data set the target is Tailor-C V328I (Drosophila, UniProt Q9VI58 202-560, V328I). The description is as above. As to conditions: protein: recombinant; tags: 8xHis-SUMO tag removed by ULP1; label: 5'-Cy5; single strand.
Tailor-C V328I, sequence (Q9VI58 202-560 V328I): as the sequence (Q9VI58 202-560 D343A) above, with V127I, A142D counted along it
For the next data set, the target named is Tailor-C V328R (Drosophila, UniProt Q9VI58 202-560, V328R). The description is as above. The following applies: protein: recombinant; tags: 8xHis-SUMO tag removed by ULP1; label: 5'-Cy5; single strand.
Tailor-C V328R, sequence (Q9VI58 202-560 V328R): as the sequence (Q9VI58 202-560 D343A) above, with V127R, A142D counted along it

T1 sequence (Q9VI58 137-560): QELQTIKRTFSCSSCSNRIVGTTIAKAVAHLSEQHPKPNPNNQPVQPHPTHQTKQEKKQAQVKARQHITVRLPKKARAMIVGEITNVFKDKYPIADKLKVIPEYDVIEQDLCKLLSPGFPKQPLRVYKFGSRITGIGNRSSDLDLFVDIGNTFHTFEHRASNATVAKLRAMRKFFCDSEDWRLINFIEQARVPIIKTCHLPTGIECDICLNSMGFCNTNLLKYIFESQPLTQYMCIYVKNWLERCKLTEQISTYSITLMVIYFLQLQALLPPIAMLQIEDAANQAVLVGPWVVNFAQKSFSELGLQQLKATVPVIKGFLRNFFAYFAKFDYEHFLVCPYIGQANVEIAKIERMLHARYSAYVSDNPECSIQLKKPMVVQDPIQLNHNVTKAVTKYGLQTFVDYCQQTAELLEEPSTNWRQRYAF

Consider `O=c1ccn([C@@H]2O[C@H](COP(=O)(O)OP(=O)(O)OP(=O)(O)O)[C@@H](O)[C@H]2O)c(=O)[nH]1` [UTP], for which the “in-vitro nucleotide transferase assay, denaturing PAGE of Cy5-labelled RNA” value at Tailor-ZnC is “Purified Tailor-ZnC, Tailor-C and mutants were assayed for oligouridylation activity”. The “X-ray crystal structure (crystal soaking), 1.74 A” value at Tailor-C [1] is “The crystals of the complex of D343A with UTP were obtained by soaking crystals”.

Consider AGU (ssRNA), for which the binding result with Tailor-C [2] was “binds”.

For the molecule CAUAUUCACAG (ssRNA) [truncated miR-1003 (3'G)], the binding result with Tailor-C V328L, in the data set with Tailor-C V328I and with Tailor-C V328R was “binds” throughout.

Turning to UUUU (ssRNA) [U4], the binding result with Tailor-C [2] is “binds”.

As for AGUU (ssRNA), the binding result in the data set with Tailor-C [2] is recorded as “binds”.
